Experimental findings from the supplement of paper PMC10126150 are described below.

The data set deals with ATP. In words: switch fluorescence ratio, 500 uM ATP over buffer (Cy3 cluster intensity, sum of 5 cycles each) (fold (ratio)); higher = stronger signal-on switching upon ATP binding; sequences stand for … in TCGTCGGCAGCGTCAGATGTGTATAAGAGACAGTTTTTTTTTTTTTTTTTTTTTTTTT…TC. To be noted: aptamer strand: ATP DNA aptamer (quencher-CACCTGGGGGAGTATTGCGGAGGAAGG + anchor), 100 nM annealed; ATP concentration: 500 uM. In short, it runs like this:
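Clusters with intensities outside 100-1000 RFU were excluded. The remaining Cy3-labelled switching-strand clusters on a modified Illumina MiSeq flow-cell had been annealed to 100 nM quencher-labelled ATP aptamer and imaged in selection buffer, then after 15 min with 500 uM ATP at 22 °C, for five cycles separated by NaOH stripping and re-annealing. The fluorescence ratio, averaged per switch-domain sequence, is each cluster's summed target-cycle Cy3 intensity over its summed buffer-cycle Cy3 intensity.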

± gives the standard deviation of the averaged measurements.
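Further: ATP exposure 15 min at 22 °C before imaging.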

Consider AAGGTTCTGG, for which the switch fluorescence ratio is 0.9883 ± 0.0083.

Turning to AAGGTTGTTT, the switch fluorescence ratio was determined as 0.983 ± 0.03. As for AAGTAAACAT, the switch fluorescence ratio turned out to be 1.06 ± 0.036. For AAGTAACTC, the switch fluorescence ratio came to 1.03 ± 0.027. As to AAGTAAGGGC, the switch fluorescence ratio came to 1.02 ± 0.031.

With AAGTACGTAG, the switch fluorescence ratio came out at 1.011 ± 0.0065. As to AAGTACGTTC, the switch fluorescence ratio turned out to be 1.25 ± 0.035. Take AAGTACTTTA: the switch fluorescence ratio stood at 1.14 ± 0.013. On to AAGTACTTTT, for which the switch fluorescence ratio was found to be 1.2 ± 0.055.

As to AAGTAGGCAC, the switch fluorescence ratio was 1.022 ± 0.0018. The same measure for AAGTAGTCCC: 1.3 ± 0.39. In the case of AAGTATGGGT, the switch fluorescence ratio was found to be 0.998 ± 0.028.

AAGTATGGTA: the switch fluorescence ratio was found to be 0.965 ± 0.075. The same measure for AAGTCCAAGA: 1.01 ± 0.033; for AAGTCCCAGC: 0.995 ± 0.048. In the case of AAGTCCCTTC it was 1.01 ± 0.035; in that of AAGTCCGGGG, 0.9698 ± 0.0013.

With AAGTCGAAGT, the switch fluorescence ratio stood at 0.98568 ± 0.00082. In the case of AAGTCGACAC it was 1.02 ± 0.032; in that of AAGTCGACGT, 1.03 ± 0.041; in that of AAGTCGATTG, 0.99 ± 0.017.

Regarding AAGTCGTCCG, the switch fluorescence ratio was 0.985 ± 0.044.

AAGTGAAACA: the switch fluorescence ratio worked out at 1.03 ± 0.037.

For the sequence AAGTGCATGC, the switch fluorescence ratio is 1.01 ± 0.11. Turning to AAGTGCTTGA, the switch fluorescence ratio was 1 ± 0.069.

Turning to AAGTGGAGGC, the switch fluorescence ratio is 1.04 ± 0.0072. Turning to AAGTGGAGTG, the switch fluorescence ratio is 0.999 ± 0.041.

Consider AAGTGGCTGT, for which the switch fluorescence ratio amounted to 0.941 ± 0.027.

In the case of AAGTGGGACC, the switch fluorescence ratio was determined as 1.02 ± 0.025. Turning to AAGTGGGCGC, the switch fluorescence ratio is 0.984 ± 0.016. In the case of AAGTGGGGGT it was 1 ± 0.039; in that of AAGTGGGGTC, 0.948 ± 0.037; in that of AAGTGGTGTC, 0.99 ± 0.13. In the case of AAGTGGTGTT it was 0.984 ± 0.028. Turning to AAGTGTAAGG, the switch fluorescence ratio worked out at 1.018 ± 0.0039. With AAGTGTCGGG, the switch fluorescence ratio worked out at 0.994 ± 0.025. The same measure for AAGTTACCTG: 1.087 ± 0.0019; for AAGTTATGGC: 0.9598 ± 0.0046; for AAGTTCACGG: 1.06 ± 0.025. In the case of AAGTTCATCT, the switch fluorescence ratio worked out at 1 ± 0.07.

AAGTTCGCCA: the switch fluorescence ratio was found to be 0.994 ± 0.01. Consider AAGTTCGTAA, for which the switch fluorescence ratio amounted to 1.03 ± 0.0079. In the case of AAGTTGACGG it was 0.985 ± 0.011. The same measure for AAGTTGATTA: 1.006 ± 0.004; for AAGTTGATTG: 1.023 ± 0.0031.

Regarding AAGTTGCACC, the switch fluorescence ratio was 1 ± 0.067. The same measure for AAGTTGGTGG: 0.987 ± 0.033; for AAGTTGTTTC: 0.988 ± 0.013.

For the sequence AAGTTTATTA, the switch fluorescence ratio turned out to be 0.964 ± 0.017.

Consider AAGTTTCTG, for which the switch fluorescence ratio was determined as 0.9892 ± 0.0025. Take AAGTTTGCGT: the switch fluorescence ratio turned out to be 0.993 ± 0.022. For AAGTTTGTGT, the switch fluorescence ratio came to 1.02 ± 0.0045.

In the case of AAGTTTTATC, the switch fluorescence ratio came out at 0.989 ± 0.021. In the case of AAGTTTTCGC, the switch fluorescence ratio was determined as 0.9789 ± 0.0067.

In the case of AAGTTTTTCG, the switch fluorescence ratio is 1.01 ± 0.014. The same measure for AATAAAATCG: 1.04 ± 0.01. The same measure for AATAAAGAAT: 0.973 ± 0.019; for AATAAATAGG: 0.9953 ± 0.0053.

For the sequence AATAAATCTA, the switch fluorescence ratio came to 1.039 ± 0.0016. In the case of AATAACGATC it was 1.037 ± 0.0063; in that of AATAACGGTG, 1.07 ± 0.019; in that of AATAAGAAGG, 0.999 ± 0.013. In the case of AATAAGAGTT, the switch fluorescence ratio was 0.995 ± 0.05.

Regarding AATAAGATTG, the switch fluorescence ratio came to 0.987 ± 0.022. Regarding AATAAGCTCG, the switch fluorescence ratio was determined as 0.9792 ± 0.0018. The same measure for AATAAGGGGC: 1.0051 ± 0.00093; for AATAATAGGT: 1.016 ± 0.007.

Regarding AATAATCAGG, the switch fluorescence ratio was 0.9926 ± 0.0086. As for AATAATTGGG, the switch fluorescence ratio turned out to be 0.9967 ± 0.0012.

With AATACCGTT, the switch fluorescence ratio was 0.968 ± 0.055.

Consider AATACCTGAA, for which the switch fluorescence ratio stood at 1.17 ± 0.017. In the case of AATACGATGC it was 1.2 ± 0.091. The same measure for AATACGGCAC: 1.852 ± 0.006; for AATACGTATA: 1.1 ± 0.068; for AATACGTGGA: 1.029 ± 0.0036. AATACTGGTT: the switch fluorescence ratio was 1.04 ± 0.021. In the case of AATAGAAGGA it was 0.9888 ± 0.0037. In the case of AATAGAATTT it was 0.997 ± 0.035.
